Patent US20110059015A1 (CONSEJO SUPERIOR DE INVESTIGACIONES CIENTIFICAS CSIC, published 2011)

How the values were obtained:
[1] = target: gp120 of HIV-1 MN strain (on virus) (HIV-1 (MN), UniProt P05877 32-513); assay: cell-based or functional assay
BSA [2] = target: T1, BSA (Bos taurus, UniProt P02769); assay: ELISA, soluble Fab on BSA coated wells
T1 construct: commercial serum albumin; also called bovine serum albumin

BSA [3] = target: T1, BSA; assay: ELISA, soluble Fab of the shuffled HC/LC pair on BSA coated wells
BSA [4] = target: T1, BSA; assay: ELISA, Fab titration on BSA coated wells
[5] = target: gp120 of HIV-1 RF strain (on virus) (HIV-1 (RF), UniProt P04579 32-519); assay: cell-based or functional assay
[6] = target: gp120 of HIV-1 SF-2 strain (on virus) (HIV-1 (SF-2), UniProt P03378 32-509); assay: cell-based or functional assay
BSA [7] = target: T1, BSA; assay: ELISA, soluble Fab on BSA coated wells; remark: listed apart in the source
BSA [8] = target: T1, BSA; assay: ELISA, soluble mutant Fab on BSA coated wells
BSA [9] = target: T1, BSA; assay: ELISA, soluble mutant Fab on BSA coated wells; remark: listed apart in the source

T1 sequence (P02769 25-607 limits assumed): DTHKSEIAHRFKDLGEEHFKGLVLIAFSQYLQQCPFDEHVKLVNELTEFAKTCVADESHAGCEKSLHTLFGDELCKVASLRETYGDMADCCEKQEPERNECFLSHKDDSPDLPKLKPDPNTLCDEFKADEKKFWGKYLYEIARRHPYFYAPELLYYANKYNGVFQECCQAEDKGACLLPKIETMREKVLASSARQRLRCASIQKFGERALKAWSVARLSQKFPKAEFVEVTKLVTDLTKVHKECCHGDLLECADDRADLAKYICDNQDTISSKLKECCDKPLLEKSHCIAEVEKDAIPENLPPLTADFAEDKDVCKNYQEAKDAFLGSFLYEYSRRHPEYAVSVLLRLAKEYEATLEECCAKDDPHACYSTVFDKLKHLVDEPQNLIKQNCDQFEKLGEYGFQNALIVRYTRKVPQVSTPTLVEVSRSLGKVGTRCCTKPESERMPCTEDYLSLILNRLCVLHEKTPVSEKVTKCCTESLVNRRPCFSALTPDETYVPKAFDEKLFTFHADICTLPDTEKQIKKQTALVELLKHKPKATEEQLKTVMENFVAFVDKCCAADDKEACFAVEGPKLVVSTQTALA

B1: Fab S20 (Fab, V domains shown)
VH: LESGGGVVQPGRSLRLSCSASGFSFRDYAMHWVRQAPGKGLEWVAFIWFDGSNERYADSVKGRFTITRDNPKNTLYLQMNSLRVEDTAVYYCVRRGGSILTGFHLDYWGQGTLVTVSS
VL: ELTQSPSSLSASVGDRVTITCRASQGIRDDLGWYQQKPGKAPKRLIYAASNLQSGVPSRFSGGGSGTEFTLTISSLQPEDFATYYCLQHNSYPLTFGGGTKVEIKR
notes: also called IgG Fab S20
% neutralisation of HIV-1 MN, NPA in MT-4 cells, at 20 µg/ml Fab [1]: 90%
binding result (BSA [2]): no binding (tested: not given on the sheet)

B2: S20/S8 (Fab, V domains shown)
VH: LESGGGVVQPGRSLRLSCSASGFSFRDYAMHWVRQAPGKGLEWVAFIWFDGSNERYADSVKGRFTITRDNPKNTLYLQMNSLRVEDTAVYYCVRRGGSILTGFHLDYWGQGTLVTVSS
VL: ELTQSPSSLSASVGDRVTITCRASQGIRDDLGWYQQKPGKAPKRLIYAASNLQSGVPSRFSGGGSGTEFTLTISSLQPEDFATYYCLQHNSYPLTFGGGTKVEIKR
notes: also called S20 heavy chain paired with S8 light chain
binding result (BSA [3]): no binding (tested: not given on the sheet)

B3: Fab S19 (Fab, V domains shown)
VH: LESGGGVVQPGRSLRLSCAASGFSFSSHGMHWVRQAPGKGLEWVAFIWFDGSNERYADSVKGRFTITRDNPKNTLYLQMNSLRVEDTAVYYCVRRGGSILTGFHLDYWGQGTLVTVSS
VL: ELTQSPSSLSASVGDRVTITCRASQGIRDDLGWYQQKPGKAPKRLIYAASNLQSGVPSRFSGGGSGTEFTLTISSLQPEDFATYYCLQHNSYPLTFGGGTKVEIKR
notes: also called IgG Fab S19
binding result (BSA [4]): no binding (tested: about 10 µg/ml)

B4: Fab S8 (Fab, V domains shown)
VH: LESGGGLVKPGGSLRLSCAASGFTFSSYAMHWVRQAPGKGLEWVAFIWFDGSNERYADSVKGRFTITRDNPKNTLYLQMNSLRVEDTAVYYCVRRGGSILTGFHLDYWGQGTLVTVSS
VL: ELTQSPSSLSASVGDRVTITCRASQGIRDDLGWYQQKPGKAPKRLIYAASNLQSGVPSRFSGGGSGTEFTLTISSLQPEDFATYYCLQHNSYPLTFGGGTKVEIKR
notes: also called IgG Fab S8; S8 Fab
% neutralisation, IRA in MT-2 cells, at 1 µg/ml Fab S8 [5]: 50%
% neutralisation, IRA in MT-2 cells, at 10 µg/ml Fab S8 [5]: > 90%
% neutralisation, IRA in MT-2 cells, at 1 µg/ml Fab S8 [6]: 50%
% neutralisation, IRA in MT-2 cells, at 10 µg/ml Fab S8 [6]: > 90%
% neutralisation of HIV-1 MN, NPA in MT-4 cells, at 20 µg/ml Fab [1]: 90%
% neutralisation, IRA in MT-2 cells, at 1 µg/ml Fab S8 [1]: 50%
% neutralisation, IRA in MT-2 cells, at 10 µg/ml Fab S8 [1]: > 90%
binding result (BSA [7]): no binding (tested: not given on the sheet)

B5: mutant Fab S895K (Fab, V domains shown)
VH: LESGGGLVKPGGSLRLSCAASGFTFSSYAMHWVRQAPGKGLEWVAFIWFDGSNERYADSVKGRFTITRDNPKNTLYLQMNSLRVEDTAVYYCVRKGGSILTGFHLDYWGQGTLVTVSS
VL: ELTQSPSSLSASVGDRVTITCRASQGIRDDLGWYQQKPGKAPKRLIYAASNLQSGVPSRFSGGGSGTEFTLTISSLQPEDFATYYCLQHNSYPLTFGGGTKVEIKR
binding result (BSA [8]): no binding (tested: not given on the sheet)

B6: Fab S8 HCDR3 mutant Arg95 to Gly (Fab, V domains shown)
VH: LESGGGLVKPGGSLRLSCAASGFTFSSYAMHWVRQAPGKGLEWVAFIWFDGSNERYADSVKGRFTITRDNPKNTLYLQMNSLRVEDTAVYYCVRGGGSILTGFHLDYWGQGTLVTVSS
VL: ELTQSPSSLSASVGDRVTITCRASQGIRDDLGWYQQKPGKAPKRLIYAASNLQSGVPSRFSGGGSGTEFTLTISSLQPEDFATYYCLQHNSYPLTFGGGTKVEIKR
binding result (BSA [8]): no binding (tested: not given on the sheet)

B7: mutant Fab S2095K (Fab, V domains shown)
VH: LESGGGVVQPGRSLRLSCSASGFSFRDYAMHWVRQAPGKGLEWVAFIWFDGSNERYADSVKGRFTITRDNPKNTLYLQMNSLRVEDTAVYYCVRKGGSILTGFHLDYWGQGTLVTVSS
VL: ELTQSPSSLSASVGDRVTITCRASQGIRDDLGWYQQKPGKAPKRLIYAASNLQSGVPSRFSGGGSGTEFTLTISSLQPEDFATYYCLQHNSYPLTFGGGTKVEIKR
binding result (BSA [9]): no binding (tested: not given on the sheet)

B8: Fab S8 HCDR3 mutant Arg95 to Asp (Fab, V domains shown)
VH: LESGGGLVKPGGSLRLSCAASGFTFSSYAMHWVRQAPGKGLEWVAFIWFDGSNERYADSVKGRFTITRDNPKNTLYLQMNSLRVEDTAVYYCVRDGGSILTGFHLDYWGQGTLVTVSS
VL: ELTQSPSSLSASVGDRVTITCRASQGIRDDLGWYQQKPGKAPKRLIYAASNLQSGVPSRFSGGGSGTEFTLTISSLQPEDFATYYCLQHNSYPLTFGGGTKVEIKR
binding result (BSA [8]): no binding (tested: not given on the sheet)

B9: S2095 P (Fab, V domains shown)
VH: LESGGGVVQPGRSLRLSCSASGFSFRDYAMHWVRQAPGKGLEWVAFIWFDGSNERYADSVKGRFTITRDNPKNTLYLQMNSLRVEDTAVYYCVRPGGSILTGFHLDYWGQGTLVTVSS
VL: ELTQSPSSLSASVGDRVTITCRASQGIRDDLGWYQQKPGKAPKRLIYAASNLQSGVPSRFSGGGSGTEFTLTISSLQPEDFATYYCLQHNSYPLTFGGGTKVEIKR
binding result (BSA [9]): no binding (tested: not given on the sheet)
